According to the supplement of paper PMC10065799, “High-throughput profiling of sequence recognition by tyrosine kinases and SH2 domains using bacterial peptide display” (eLife, 2023):
One block for each sequence: values may come before it.

Tests used:
[1] = target: MERTK (UniProt Q12866); assay: phosphorylation enrichment, bacterial display (enrichment ratio); higher = better substrate or ligand; peptides without Tyr show the background
[2] = system: c-Abl (mouse); assay: as above
[3] = target: Jak2 (UniProt O60674); assay: as above
[4] = target: Hck (UniProt P08631); assay: as above
Hck, sequence (P08631 whole entry, looked up): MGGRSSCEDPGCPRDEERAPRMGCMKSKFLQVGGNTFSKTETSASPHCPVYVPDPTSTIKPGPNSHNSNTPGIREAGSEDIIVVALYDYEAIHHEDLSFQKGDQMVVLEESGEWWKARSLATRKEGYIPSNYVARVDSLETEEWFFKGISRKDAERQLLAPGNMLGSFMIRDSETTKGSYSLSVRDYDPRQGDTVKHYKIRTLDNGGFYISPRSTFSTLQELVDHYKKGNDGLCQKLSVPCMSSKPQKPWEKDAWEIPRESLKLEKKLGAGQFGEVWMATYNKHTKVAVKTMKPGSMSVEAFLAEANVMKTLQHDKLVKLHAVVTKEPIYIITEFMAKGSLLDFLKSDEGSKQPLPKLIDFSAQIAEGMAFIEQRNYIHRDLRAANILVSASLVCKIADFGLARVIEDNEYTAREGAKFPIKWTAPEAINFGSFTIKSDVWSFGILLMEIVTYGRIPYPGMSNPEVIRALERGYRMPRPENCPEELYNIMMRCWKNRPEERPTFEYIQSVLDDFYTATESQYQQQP

[5] = target: Fes (UniProt P07332); assay: as above
Fes, sequence (P07332 whole entry, looked up): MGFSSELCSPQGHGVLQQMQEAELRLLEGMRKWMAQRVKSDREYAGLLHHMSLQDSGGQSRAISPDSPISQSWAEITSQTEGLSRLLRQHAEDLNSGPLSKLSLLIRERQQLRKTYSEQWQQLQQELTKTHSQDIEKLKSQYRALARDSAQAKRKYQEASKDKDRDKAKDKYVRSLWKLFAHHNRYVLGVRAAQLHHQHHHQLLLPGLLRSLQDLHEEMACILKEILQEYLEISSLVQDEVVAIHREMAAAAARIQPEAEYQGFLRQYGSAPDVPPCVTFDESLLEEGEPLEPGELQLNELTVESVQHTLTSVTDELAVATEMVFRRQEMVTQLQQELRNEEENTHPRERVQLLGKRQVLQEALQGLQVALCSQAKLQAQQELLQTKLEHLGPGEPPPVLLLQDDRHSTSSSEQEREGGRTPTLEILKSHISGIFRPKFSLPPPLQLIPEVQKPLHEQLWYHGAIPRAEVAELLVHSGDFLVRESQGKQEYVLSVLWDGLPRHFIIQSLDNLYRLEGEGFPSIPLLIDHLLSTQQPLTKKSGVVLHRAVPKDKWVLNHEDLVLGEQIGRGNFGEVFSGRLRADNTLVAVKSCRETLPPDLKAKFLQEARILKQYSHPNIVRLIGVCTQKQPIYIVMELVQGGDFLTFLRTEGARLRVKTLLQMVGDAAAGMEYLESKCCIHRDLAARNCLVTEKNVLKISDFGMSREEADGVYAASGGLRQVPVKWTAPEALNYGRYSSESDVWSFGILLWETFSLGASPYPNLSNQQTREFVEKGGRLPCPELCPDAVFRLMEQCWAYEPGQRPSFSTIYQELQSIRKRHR

[6] = target: EPHB1 (UniProt P54762); assay: as above
EPHB1, sequence (P54762 whole entry, looked up): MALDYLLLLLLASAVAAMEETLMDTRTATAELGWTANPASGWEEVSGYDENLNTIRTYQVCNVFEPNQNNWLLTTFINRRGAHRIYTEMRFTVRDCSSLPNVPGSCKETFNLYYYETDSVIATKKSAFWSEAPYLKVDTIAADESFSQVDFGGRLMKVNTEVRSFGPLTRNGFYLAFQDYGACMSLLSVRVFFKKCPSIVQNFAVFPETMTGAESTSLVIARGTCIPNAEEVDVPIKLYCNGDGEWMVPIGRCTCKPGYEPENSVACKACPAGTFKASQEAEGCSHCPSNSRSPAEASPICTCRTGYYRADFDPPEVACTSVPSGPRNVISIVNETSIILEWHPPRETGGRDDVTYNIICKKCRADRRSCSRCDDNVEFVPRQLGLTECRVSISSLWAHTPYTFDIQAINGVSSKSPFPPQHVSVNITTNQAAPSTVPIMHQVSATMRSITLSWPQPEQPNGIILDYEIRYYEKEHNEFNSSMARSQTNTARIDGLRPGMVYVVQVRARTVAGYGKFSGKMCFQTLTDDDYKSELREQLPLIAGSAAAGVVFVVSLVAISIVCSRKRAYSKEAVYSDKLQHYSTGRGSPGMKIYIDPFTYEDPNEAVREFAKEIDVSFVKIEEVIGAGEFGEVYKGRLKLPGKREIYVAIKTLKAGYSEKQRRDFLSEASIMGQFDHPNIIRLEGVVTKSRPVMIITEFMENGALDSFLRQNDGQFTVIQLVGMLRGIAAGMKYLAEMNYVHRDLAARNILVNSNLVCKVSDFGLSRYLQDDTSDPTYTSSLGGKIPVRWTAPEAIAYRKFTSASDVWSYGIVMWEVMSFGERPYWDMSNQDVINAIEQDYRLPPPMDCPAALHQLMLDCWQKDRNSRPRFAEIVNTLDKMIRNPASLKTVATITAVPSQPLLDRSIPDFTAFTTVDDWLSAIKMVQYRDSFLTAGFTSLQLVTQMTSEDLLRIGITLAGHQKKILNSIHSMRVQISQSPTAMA

[7] = target: EPHB2 (UniProt P29323); assay: as above
[8] = system: AncSZ; assay: as above
[9] = system: c-Src; assay: as above
[10] = target: FGFR3 (UniProt P22607); assay: as above
FGFR3, sequence (P22607 whole entry, looked up): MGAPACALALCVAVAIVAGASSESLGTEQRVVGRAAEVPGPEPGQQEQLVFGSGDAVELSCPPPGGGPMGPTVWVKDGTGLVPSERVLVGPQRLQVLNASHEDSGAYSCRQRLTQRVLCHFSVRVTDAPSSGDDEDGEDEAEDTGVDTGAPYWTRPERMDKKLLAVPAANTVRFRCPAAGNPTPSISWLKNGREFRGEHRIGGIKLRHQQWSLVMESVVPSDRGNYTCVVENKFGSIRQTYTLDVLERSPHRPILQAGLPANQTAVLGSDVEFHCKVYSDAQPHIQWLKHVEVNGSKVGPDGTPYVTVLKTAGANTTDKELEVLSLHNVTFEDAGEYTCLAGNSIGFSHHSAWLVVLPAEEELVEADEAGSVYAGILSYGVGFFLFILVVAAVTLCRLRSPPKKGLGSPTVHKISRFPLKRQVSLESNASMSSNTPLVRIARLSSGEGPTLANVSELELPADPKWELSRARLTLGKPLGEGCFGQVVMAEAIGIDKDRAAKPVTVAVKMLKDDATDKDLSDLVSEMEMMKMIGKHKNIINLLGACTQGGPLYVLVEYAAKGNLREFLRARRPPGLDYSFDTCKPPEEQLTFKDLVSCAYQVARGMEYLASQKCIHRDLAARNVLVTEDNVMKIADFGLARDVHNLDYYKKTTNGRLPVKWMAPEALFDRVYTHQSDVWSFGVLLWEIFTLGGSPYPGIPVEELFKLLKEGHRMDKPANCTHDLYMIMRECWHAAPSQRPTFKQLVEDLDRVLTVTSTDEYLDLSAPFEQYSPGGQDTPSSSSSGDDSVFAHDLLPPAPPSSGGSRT

[11] = target: Fyn (UniProt P06241); assay: as above
Fyn, sequence (P06241 whole entry, looked up): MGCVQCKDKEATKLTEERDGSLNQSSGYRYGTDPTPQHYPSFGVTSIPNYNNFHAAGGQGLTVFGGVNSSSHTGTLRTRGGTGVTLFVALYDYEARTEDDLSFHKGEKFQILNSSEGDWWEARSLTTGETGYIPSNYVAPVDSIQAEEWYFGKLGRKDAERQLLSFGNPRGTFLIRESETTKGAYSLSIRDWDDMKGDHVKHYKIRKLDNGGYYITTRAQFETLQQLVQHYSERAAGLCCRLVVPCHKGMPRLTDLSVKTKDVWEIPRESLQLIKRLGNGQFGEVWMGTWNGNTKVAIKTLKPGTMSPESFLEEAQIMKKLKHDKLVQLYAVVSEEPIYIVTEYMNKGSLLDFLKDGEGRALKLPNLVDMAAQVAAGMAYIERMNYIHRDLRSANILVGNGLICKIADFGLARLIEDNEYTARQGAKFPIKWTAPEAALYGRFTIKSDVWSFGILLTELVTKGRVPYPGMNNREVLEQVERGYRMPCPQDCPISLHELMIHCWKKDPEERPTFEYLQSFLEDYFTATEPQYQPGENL

[12] = target: FGFR1 (UniProt P11362); assay: as above
FGFR1, sequence (P11362 whole entry, looked up): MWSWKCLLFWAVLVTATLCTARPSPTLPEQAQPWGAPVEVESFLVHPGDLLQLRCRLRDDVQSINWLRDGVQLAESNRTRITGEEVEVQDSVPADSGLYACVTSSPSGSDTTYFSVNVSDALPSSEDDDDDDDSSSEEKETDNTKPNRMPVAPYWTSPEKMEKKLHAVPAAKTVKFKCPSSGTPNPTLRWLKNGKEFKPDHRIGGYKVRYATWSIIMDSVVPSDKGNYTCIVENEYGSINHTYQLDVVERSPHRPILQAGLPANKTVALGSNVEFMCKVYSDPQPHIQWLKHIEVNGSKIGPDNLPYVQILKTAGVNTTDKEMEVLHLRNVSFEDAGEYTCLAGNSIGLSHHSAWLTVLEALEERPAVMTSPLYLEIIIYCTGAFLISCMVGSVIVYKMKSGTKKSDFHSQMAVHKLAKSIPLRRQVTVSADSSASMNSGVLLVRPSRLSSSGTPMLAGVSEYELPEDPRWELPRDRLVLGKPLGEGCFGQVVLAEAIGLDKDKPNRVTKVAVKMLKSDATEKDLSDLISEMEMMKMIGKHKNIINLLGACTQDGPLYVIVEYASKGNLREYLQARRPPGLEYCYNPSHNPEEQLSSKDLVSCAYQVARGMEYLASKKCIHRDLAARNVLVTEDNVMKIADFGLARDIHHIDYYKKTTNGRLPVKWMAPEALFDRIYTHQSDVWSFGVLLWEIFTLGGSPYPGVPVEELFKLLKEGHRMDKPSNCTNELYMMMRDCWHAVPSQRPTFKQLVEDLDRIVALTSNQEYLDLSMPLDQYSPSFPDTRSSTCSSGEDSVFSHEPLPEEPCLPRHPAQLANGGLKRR

[13] = system: Fer (mouse); assay: as above
[14] = target: c-Src SH2; assay: SH2 binding enrichment of the phosphorylated peptide, bacterial display (enrichment ratio); higher = better substrate or ligand; peptides without Tyr show the background
[15] = target: SHP2-C SH2; assay: as above
[16] = target: Grb2 SH2 (UniProt P62993); assay: as above
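Throughout, for SH2 binding enrichment of the phosphorylated peptide, bacterial display: peptide library displayed on the E. coli surface as eCPX fusions, selected cells deep-sequenced, score is each peptide's frequency after selection divided by its frequency in the input.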
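Throughout, for phosphorylation enrichment, bacterial display: 11-residue human phosphosite peptides and single-mutation variants displayed on the E. coli surface, counted by deep sequencing, each peptide's frequency after selection divided by its frequency in the unselected input library; frequency after pTyr selection over input frequency; kinase dosed for 20-30% of maximal phosphorylation in three min.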

- SH2 binding enrichment [14]: 0.497
- SH2 binding enrichment [15]: 0.556
- SH2 binding enrichment [16]: 0.706
Sequence: FGRTFYNQANM [MCCC2_Y196_I200N]
- phosphorylation enrichment [1]: 0.411
- phosphorylation enrichment [2]: 0.842
- phosphorylation enrichment [3]: 0.994
- phosphorylation enrichment [4]: 0.503
- phosphorylation enrichment [5]: 1.06
- phosphorylation enrichment [6]: 0.786
- phosphorylation enrichment [7]: 0.509
- phosphorylation enrichment [8]: 0.939
- phosphorylation enrichment [9]: 0.493
- phosphorylation enrichment [10]: 0.695
- phosphorylation enrichment [11]: 0.377
- phosphorylation enrichment [12]: 0.433
- phosphorylation enrichment [13]: 0.51

- SH2 binding enrichment [14]: 0.544
- SH2 binding enrichment [15]: 0.699
- SH2 binding enrichment [16]: 0.948
Sequence: KDFETYQPFQN [CTNND2_Y1157_YF]
- phosphorylation enrichment [1]: 0.463
- phosphorylation enrichment [2]: 0.741
- phosphorylation enrichment [3]: 0.869
- phosphorylation enrichment [4]: 5.76
- phosphorylation enrichment [5]: 1.02
- phosphorylation enrichment [6]: 0.69
- phosphorylation enrichment [7]: 0.786
- phosphorylation enrichment [8]: 1.13
- phosphorylation enrichment [9]: 4.18
- phosphorylation enrichment [10]: 0.603
- phosphorylation enrichment [11]: 4.76
- phosphorylation enrichment [12]: 0.54
- phosphorylation enrichment [13]: 0.612

- SH2 binding enrichment [14]: 1.31
- SH2 binding enrichment [15]: 1.21
- SH2 binding enrichment [16]: 1.57
Sequence: RLLVVYSWTQR [HBB_Y36_P37S]
- phosphorylation enrichment [1]: 1.05
- phosphorylation enrichment [2]: 1
- phosphorylation enrichment [3]: 1.37
- phosphorylation enrichment [4]: 0.698
- phosphorylation enrichment [5]: 1.57
- phosphorylation enrichment [6]: 1.04
- phosphorylation enrichment [7]: 0.593
- phosphorylation enrichment [8]: 1.47
- phosphorylation enrichment [9]: 0.872
- phosphorylation enrichment [10]: 0.91
- phosphorylation enrichment [11]: 0.864
- phosphorylation enrichment [12]: 0.783
- phosphorylation enrichment [13]: 0.565

- SH2 binding enrichment [14]: 0.642
- SH2 binding enrichment [15]: 0.661
- SH2 binding enrichment [16]: 0.872
Sequence: ATATDYHTTSH [SLC4A1_Y46]
- phosphorylation enrichment [1]: 0.438
- phosphorylation enrichment [2]: 0.416
- phosphorylation enrichment [3]: 0.387
- phosphorylation enrichment [4]: 0.397
- phosphorylation enrichment [5]: 0.482
- phosphorylation enrichment [6]: 0.31
- phosphorylation enrichment [7]: 0.348
- phosphorylation enrichment [8]: 0.473
- phosphorylation enrichment [9]: 0.334
- phosphorylation enrichment [10]: 0.434
- phosphorylation enrichment [11]: 0.294
- phosphorylation enrichment [12]: 0.408
- phosphorylation enrichment [13]: 0.328

- SH2 binding enrichment [14]: 5.87
- SH2 binding enrichment [15]: 0.729
- SH2 binding enrichment [16]: 0.828
Sequence: LIEQAYDNPHE [PRPF8_Y871]
- phosphorylation enrichment [1]: 0.43
- phosphorylation enrichment [2]: 0.767
- phosphorylation enrichment [3]: 0.811
- phosphorylation enrichment [4]: 0.86
- phosphorylation enrichment [5]: 1.16
- phosphorylation enrichment [6]: 0.638
- phosphorylation enrichment [7]: 0.824
- phosphorylation enrichment [8]: 1.12
- phosphorylation enrichment [9]: 0.472
- phosphorylation enrichment [10]: 0.695
- phosphorylation enrichment [11]: 0.645
- phosphorylation enrichment [12]: 0.566
- phosphorylation enrichment [13]: 0.602

- SH2 binding enrichment [14]: 0.471
- SH2 binding enrichment [15]: 0.456
- SH2 binding enrichment [16]: 0.789
Sequence: HKLSFNEFDFE [BTK_Y40_Y40N_YF]
- phosphorylation enrichment [1]: 0.712
- phosphorylation enrichment [2]: 1.02
- phosphorylation enrichment [3]: 1.53
- phosphorylation enrichment [4]: 0.918
- phosphorylation enrichment [5]: 1.58
- phosphorylation enrichment [6]: 0.829
- phosphorylation enrichment [7]: 0.859
- phosphorylation enrichment [8]: 1.61
- phosphorylation enrichment [9]: 0.864
- phosphorylation enrichment [10]: 0.882
- phosphorylation enrichment [11]: 0.834
- phosphorylation enrichment [12]: 0.795
- phosphorylation enrichment [13]: 0.788

- SH2 binding enrichment [14]: 0.682
- SH2 binding enrichment [15]: 0.673
- SH2 binding enrichment [16]: 0.813
Sequence: YGSGNYNVFGN [HNRNPA2B1_Y300_D302V]
- phosphorylation enrichment [1]: 0.639
- phosphorylation enrichment [2]: 0.49
- phosphorylation enrichment [3]: 0.683
- phosphorylation enrichment [4]: 0.882
- phosphorylation enrichment [5]: 0.828
- phosphorylation enrichment [6]: 0.666
- phosphorylation enrichment [7]: 0.797
- phosphorylation enrichment [8]: 0.737
- phosphorylation enrichment [9]: 0.653
- phosphorylation enrichment [10]: 0.63
- phosphorylation enrichment [11]: 0.76
- phosphorylation enrichment [12]: 0.539
- phosphorylation enrichment [13]: 0.561

- SH2 binding enrichment [14]: 0.564
- SH2 binding enrichment [15]: 0.533
- SH2 binding enrichment [16]: 0.984
Sequence: VNNTVYGIDAM [EIF3J_Y143_A141T]
- phosphorylation enrichment [1]: 0.349
- phosphorylation enrichment [2]: 0.616
- phosphorylation enrichment [3]: 0.696
- phosphorylation enrichment [4]: 0.626
- phosphorylation enrichment [5]: 0.698
- phosphorylation enrichment [6]: 0.479
- phosphorylation enrichment [7]: 0.429
- phosphorylation enrichment [8]: 0.724
- phosphorylation enrichment [9]: 0.596
- phosphorylation enrichment [10]: 0.461
- phosphorylation enrichment [11]: 0.907
- phosphorylation enrichment [12]: 0.512
- phosphorylation enrichment [13]: 0.423

- SH2 binding enrichment [14]: 0.673
- SH2 binding enrichment [15]: 0.98
- SH2 binding enrichment [16]: 0.903
Sequence: THQNSYQPGRK [CEFIP_Y210]
- phosphorylation enrichment [1]: 0.34
- phosphorylation enrichment [2]: 0.422
- phosphorylation enrichment [3]: 0.415
- phosphorylation enrichment [4]: 0.375
- phosphorylation enrichment [5]: 0.436
- phosphorylation enrichment [6]: 0.233
- phosphorylation enrichment [7]: 0.366
- phosphorylation enrichment [8]: 0.561
- phosphorylation enrichment [9]: 0.299
- phosphorylation enrichment [10]: 0.34
- phosphorylation enrichment [11]: 0.36
- phosphorylation enrichment [12]: 0.479
- phosphorylation enrichment [13]: 0.303

- SH2 binding enrichment [14]: 0.648
- SH2 binding enrichment [15]: 0.64
- SH2 binding enrichment [16]: 0.883
Sequence: LEIETCRRLLD [KRT12_Y429_Y429C]
- phosphorylation enrichment [1]: 0.411
- phosphorylation enrichment [2]: 1.01
- phosphorylation enrichment [3]: 1.07
- phosphorylation enrichment [4]: 0.759
- phosphorylation enrichment [5]: 1.33
- phosphorylation enrichment [6]: 0.939
- phosphorylation enrichment [7]: 0.913
- phosphorylation enrichment [8]: 1.2
- phosphorylation enrichment [9]: 0.415
- phosphorylation enrichment [10]: 1.2
- phosphorylation enrichment [11]: 0.635
- phosphorylation enrichment [12]: 0.722
- phosphorylation enrichment [13]: 0.474

- SH2 binding enrichment [14]: 2.5
- SH2 binding enrichment [15]: 1.68
- SH2 binding enrichment [16]: 1.62
Sequence: YQRITYHNWRH [PDE6B_Y556_R552Q]
- phosphorylation enrichment [1]: 0.482
- phosphorylation enrichment [2]: 0.485
- phosphorylation enrichment [3]: 0.561
- phosphorylation enrichment [4]: 0.579
- phosphorylation enrichment [5]: 0.619
- phosphorylation enrichment [6]: 0.386
- phosphorylation enrichment [7]: 0.483
- phosphorylation enrichment [8]: 0.59
- phosphorylation enrichment [9]: 0.486
- phosphorylation enrichment [10]: 0.618
- phosphorylation enrichment [11]: 0.446
- phosphorylation enrichment [12]: 0.626
- phosphorylation enrichment [13]: 0.461

- SH2 binding enrichment [14]: 0.371
- SH2 binding enrichment [15]: 0.633
- SH2 binding enrichment [16]: 0.82
Sequence: HEGKIYEFNQV [ZNF665_Y162_YF]
- phosphorylation enrichment [1]: 4.13
- phosphorylation enrichment [2]: 1.6
- phosphorylation enrichment [3]: 0.468
- phosphorylation enrichment [4]: 1.64
- phosphorylation enrichment [5]: 0.975
- phosphorylation enrichment [6]: 0.883
- phosphorylation enrichment [7]: 1.17
- phosphorylation enrichment [8]: 0.796
- phosphorylation enrichment [9]: 4.38
- phosphorylation enrichment [10]: 0.929
- phosphorylation enrichment [11]: 6.98
- phosphorylation enrichment [12]: 0.665
- phosphorylation enrichment [13]: 22.6

- SH2 binding enrichment [14]: 0.69
- SH2 binding enrichment [15]: 0.712
- SH2 binding enrichment [16]: 0.699
Sequence: FAGRDYSLDEF [MYOF_Y1705_G1701A_YF]
- phosphorylation enrichment [1]: 0.45
- phosphorylation enrichment [2]: 0.639
- phosphorylation enrichment [3]: 1.01
- phosphorylation enrichment [4]: 0.51
- phosphorylation enrichment [5]: 0.969
- phosphorylation enrichment [6]: 0.433
- phosphorylation enrichment [7]: 0.567
- phosphorylation enrichment [8]: 0.986
- phosphorylation enrichment [9]: 0.572
- phosphorylation enrichment [10]: 0.708
- phosphorylation enrichment [11]: 0.454
- phosphorylation enrichment [12]: 0.497
- phosphorylation enrichment [13]: 0.451

- SH2 binding enrichment [14]: 0.472
- SH2 binding enrichment [15]: 0.491
- SH2 binding enrichment [16]: 0.845
Sequence: LEVPLYKNGVK [CPS1_Y1069_A1065E]
- phosphorylation enrichment [1]: 0.625
- phosphorylation enrichment [2]: 0.693
- phosphorylation enrichment [3]: 0.643
- phosphorylation enrichment [4]: 0.655
- phosphorylation enrichment [5]: 0.997
- phosphorylation enrichment [6]: 0.715
- phosphorylation enrichment [7]: 0.43
- phosphorylation enrichment [8]: 1.28
- phosphorylation enrichment [9]: 0.321
- phosphorylation enrichment [10]: 1.11
- phosphorylation enrichment [11]: 0.759
- phosphorylation enrichment [12]: 0.944
- phosphorylation enrichment [13]: 0.66

- SH2 binding enrichment [14]: 0.717
- SH2 binding enrichment [15]: 0.448
- SH2 binding enrichment [16]: 0.802
Sequence: HFVDEYDPTME [KRAS_Y32_I36M]
- phosphorylation enrichment [1]: 0.66
- phosphorylation enrichment [2]: 1.31
- phosphorylation enrichment [3]: 1.33
- phosphorylation enrichment [4]: 0.702
- phosphorylation enrichment [5]: 1.49
- phosphorylation enrichment [6]: 0.727
- phosphorylation enrichment [7]: 0.437
- phosphorylation enrichment [8]: 1.5
- phosphorylation enrichment [9]: 0.634
- phosphorylation enrichment [10]: 0.633
- phosphorylation enrichment [11]: 0.614
- phosphorylation enrichment [12]: 0.424
- phosphorylation enrichment [13]: 1.11

- SH2 binding enrichment [14]: 0.529
- SH2 binding enrichment [15]: 0.743
- SH2 binding enrichment [16]: 0.841
Sequence: PLTKVYVVEGS [ZMPSTE24_Y253]
- phosphorylation enrichment [1]: 0.418
- phosphorylation enrichment [2]: 0.617
- phosphorylation enrichment [3]: 0.526
- phosphorylation enrichment [4]: 0.441
- phosphorylation enrichment [5]: 0.952
- phosphorylation enrichment [6]: 0.487
- phosphorylation enrichment [7]: 0.538
- phosphorylation enrichment [8]: 0.814
- phosphorylation enrichment [9]: 0.554
- phosphorylation enrichment [10]: 0.73
- phosphorylation enrichment [11]: 0.494
- phosphorylation enrichment [12]: 0.494
- phosphorylation enrichment [13]: 0.567

- SH2 binding enrichment [14]: 0.139
- SH2 binding enrichment [15]: 0.29
Sequence: TDECEYDELIV [TGM1_Y136_Y134C]
- phosphorylation enrichment [1]: 0.604
- phosphorylation enrichment [2]: 0.742
- phosphorylation enrichment [3]: 0.788
- phosphorylation enrichment [4]: 1.8
- phosphorylation enrichment [5]: 1.13
- phosphorylation enrichment [6]: 1.09
- phosphorylation enrichment [7]: 0.842
- phosphorylation enrichment [8]: 1.41
- phosphorylation enrichment [9]: 0.529
- phosphorylation enrichment [10]: 0.865
- phosphorylation enrichment [11]: 2.06
- phosphorylation enrichment [12]: 0.57
- phosphorylation enrichment [13]: 1.61
